The values below come from patent US20110082078.

In the series the test system is ZFP-TF 14172-p65 (rat GDNF activator) (synthetic). Put plainly: cell_activity. The following applies: GDNF mRNA increase vs AAV-GFP in rat eye; also activates in rat striatal neurons (FIG. 5).

In turn, “GGGGGCGCGGAACCGGGA (double strand) [rat GDNF target site (SEQ ID NO:55)]” showed an activity of 5 fold.
